Results taken from PMC8501996.

Target: hRPA1;hRPA2;hRPA3 (Homo sapiens;Homo sapiens;Homo sapiens, UniProt P27694;P15927;P35244 1-616;1-270;1-121, ||)
Experiment: FRET kinetics

hRPA1;hRPA2;hRPA3, sequence (P27694 whole entry, chain 1 of 3): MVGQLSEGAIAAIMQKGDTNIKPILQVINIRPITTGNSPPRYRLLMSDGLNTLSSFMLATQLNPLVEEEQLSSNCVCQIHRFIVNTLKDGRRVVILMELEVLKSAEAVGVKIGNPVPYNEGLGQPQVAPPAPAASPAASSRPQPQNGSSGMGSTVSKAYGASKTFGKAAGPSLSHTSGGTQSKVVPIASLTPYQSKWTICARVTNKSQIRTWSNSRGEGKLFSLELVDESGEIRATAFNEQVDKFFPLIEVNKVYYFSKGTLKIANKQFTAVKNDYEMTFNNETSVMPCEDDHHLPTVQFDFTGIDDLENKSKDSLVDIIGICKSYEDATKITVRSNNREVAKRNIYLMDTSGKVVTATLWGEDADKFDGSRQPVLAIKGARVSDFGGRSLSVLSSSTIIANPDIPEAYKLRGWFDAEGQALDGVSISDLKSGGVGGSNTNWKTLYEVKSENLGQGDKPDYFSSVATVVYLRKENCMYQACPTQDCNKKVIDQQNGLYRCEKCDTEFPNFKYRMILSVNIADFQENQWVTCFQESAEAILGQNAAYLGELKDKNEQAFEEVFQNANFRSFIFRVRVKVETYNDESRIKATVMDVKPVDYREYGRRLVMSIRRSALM
hRPA1;hRPA2;hRPA3, sequence (P15927 whole entry, chain 2 of 3): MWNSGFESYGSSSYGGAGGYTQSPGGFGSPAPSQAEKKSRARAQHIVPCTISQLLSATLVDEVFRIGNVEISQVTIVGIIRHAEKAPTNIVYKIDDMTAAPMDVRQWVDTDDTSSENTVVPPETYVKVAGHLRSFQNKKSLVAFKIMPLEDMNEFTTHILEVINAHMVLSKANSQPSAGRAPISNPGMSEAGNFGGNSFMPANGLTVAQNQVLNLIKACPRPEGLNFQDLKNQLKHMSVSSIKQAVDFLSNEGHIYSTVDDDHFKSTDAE
hRPA1;hRPA2;hRPA3, sequence (P35244 whole entry, chain 3 of 3): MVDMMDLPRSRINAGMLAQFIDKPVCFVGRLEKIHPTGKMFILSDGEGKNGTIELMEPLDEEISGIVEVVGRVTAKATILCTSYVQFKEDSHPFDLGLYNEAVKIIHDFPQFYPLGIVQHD

B1: H69-Q2 (structured_DNA)
DNA: GGGTTAGGGTTAGGGTTAGGGTTAGGGTTAGGGTTAGGGTTAGGGTTAGGGTTAGGGTTAGGGTTAGGG
modifications: 6FAM-dT in 4th repeat (T23); TAMRA-dT in 8th repeat (T47)
  binding result: binds
